Results reported in the supplement of paper PMC10598134.
± gives the standard deviation.

Experiment: collision cross section of modified peptide (TIMS, N2, iRT-aligned); higher = larger / more extended gas-phase ion
How it was run: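 Values are averages of 1–3 technical replicates of the most abundant feature for each charge state. Collision cross section was obtained from the Mason-Schamp equation after 1/K0 calibration with three reference ions and run-wise alignment to the median iRT peptide deviation. Synthetic peptide pools (iRT standard spiked 1:40) were separated on a 120-min nanoflow C18 gradient at 60 °C, analysed on a timsTOF Pro/HT (dda-PASEF, nitrogen, ~2.4 mbar) and identified with MaxQuant.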

[1] = charge state: 2, modification: Propionyl
[2] = charge state: 2, modification: Succinyl
[3] = charge state: 3, modification: Succinyl
[4] = charge state: 2, modification: hydroxyisobutyryl
[5] = charge state: 2, modification: Acetyl (K)
[6] = charge state: 2, modification: Butyryl
[7] = charge state: 2, modification: Crotonyl
[8] = charge state: 2, modification: Dimethyl (K)
[9] = charge state: 3, modification: Dimethyl (K)
[10] = charge state: 2, modification: Formyl
[11] = charge state: 2, modification: Glutarylation
[12] = charge state: 2, modification: GlyGly (K)
[13] = charge state: 3, modification: GlyGly (K)
[14] = charge state: 2, modification: Malonyl
[15] = charge state: 2, modification: Methyl (K)
[16] = charge state: 3, modification: Methyl (K)

GEVGAGAGPGAQAGPSAKR [_GEVGAGAGPGAQAGPSAK(Propionyl)R_]
collision cross section [1]: 422.82 ± 0.97 Å² | collision cross section (charge state: 3, modification: Propionyl): 482.16 ± 0.88 Å²

GEVGAGAGPGAQAGPSAKR [_GEVGAGAGPGAQAGPSAK(Succinyl)R_]
collision cross section [2]: 417.99 ± 0.36 Å² | collision cross section [3]: 474.67 ± 1.5 Å²

GEVGAGAGPGAQAGPSAKR [_GEVGAGAGPGAQAGPSAK(Trimethyl (K))R_]
collision cross section (charge state: 3, modification: Trimethyl (K)): 489.76 ± 5.2 Å²

GEVGAGAGPGAQAGPSAKR [_GEVGAGAGPGAQAGPSAK(hydroxyisobutyryl)R_]
collision cross section [4]: 426.95 ± 0.56 Å² | collision cross section (charge state: 3, modification: hydroxyisobutyryl): 486.12 ± 1.9 Å²

GEVQVSDKER [_GEVQVSDK(Acetyl (K))ER_]
collision cross section [5]: 356.44 ± 0.96 Å²

GEVQVSDKER [_GEVQVSDK(Butyryl)ER_]
collision cross section [6]: 363.29 ± 0.49 Å²

GEVQVSDKER [_GEVQVSDK(Crotonyl)ER_]
collision cross section [7]: 363.4 ± 0.8 Å²

GEVQVSDKER [_GEVQVSDK(Dimethyl (K))ER_]
collision cross section [8]: 362.93 ± 0.58 Å² | collision cross section [9]: 422.58 ± 1.6 Å²

GEVQVSDKER [_GEVQVSDK(Formyl)ER_]
collision cross section [10]: 353.55 ± 2.5 Å²

GEVQVSDKER [_GEVQVSDK(Gluratylation)ER_]
collision cross section [11]: 368.37 ± 8.3 Å²

GEVQVSDKER [_GEVQVSDK(GlyGly (K))ER_]
collision cross section [12]: 370.72 ± 1.1 Å² | collision cross section [13]: 432.88 ± 2.5 Å²

GEVQVSDKER [_GEVQVSDK(Malonyl)ER_]
collision cross section [14]: 362.93 ± 1.2 Å²

GEVQVSDKER [_GEVQVSDK(Methyl (K))ER_]
collision cross section [15]: 360.9 ± 0.67 Å² | collision cross section [16]: 436.39 ± 5.2 Å²

GEVQVSDKER [_GEVQVSDK(Propionyl)ER_]
collision cross section [1]: 360.54 ± 0.33 Å²

GEVQVSDKER [_GEVQVSDK(Succinyl)ER_]
collision cross section [2]: 361.33 ± 0.24 Å²

GEVQVSDKER [_GEVQVSDK(Trimethyl (K))ER_]
collision cross section (charge state: 2, modification: Trimethyl (K)): 366.73 ± 1.1 Å²

GEVQVSDKER [_GEVQVSDK(hydroxyisobutyryl)ER_]
collision cross section [4]: 366.78 ± 0.27 Å²

GEYFGEK [_GEY(Nitro (Y))FGEK_]
collision cross section (charge state: 2, modification: Nitro (Y)): 309.86 ± 0.71 Å²

GEYFGEK [_GEY(Phospho (Y))FGEK_]
collision cross section (charge state: 2, modification: Phospho (Y)): 321.93 ± 0.65 Å²

GFALVGVGSEASSKK [_GFALVGVGSEASSK(Acetyl (K))K_]
collision cross section [5]: 429.07 ± 17 Å² | collision cross section (charge state: 3, modification: Acetyl (K)): 499.93 ± 0.98 Å²

GFALVGVGSEASSKK [_GFALVGVGSEASSK(Biotin)K_]
collision cross section (charge state: 2, modification: Biotin): 423.88 ± 1.4 Å² | collision cross section (charge state: 3, modification: Biotin): 494.71 ± 0.97 Å²

GFALVGVGSEASSKK [_GFALVGVGSEASSK(Butyryl)K_]
collision cross section [6]: 447.9 ± 0.87 Å² | collision cross section (charge state: 3, modification: Butyryl): 499.86 ± 2.6 Å²

GFALVGVGSEASSKK [_GFALVGVGSEASSK(Crotonyl)K_]
collision cross section [7]: 448.38 ± 0.94 Å² | collision cross section (charge state: 3, modification: Crotonyl): 499.08 ± 1.9 Å²

GFALVGVGSEASSKK [_GFALVGVGSEASSK(Dimethyl (K))K_]
collision cross section [8]: 439.69 ± 1.2 Å² | collision cross section [9]: 485.09 ± 1.2 Å²

GFALVGVGSEASSKK [_GFALVGVGSEASSK(Formyl)K_]
collision cross section [10]: 409.61 ± 2 Å² | collision cross section (charge state: 3, modification: Formyl): 498.32 ± 1.8 Å²

GFALVGVGSEASSKK [_GFALVGVGSEASSK(Gluratylation)K_]
collision cross section [11]: 416.74 ± 0.49 Å² | collision cross section (charge state: 3, modification: Glutarylation): 499.26 ± 3.6 Å²

GFALVGVGSEASSKK [_GFALVGVGSEASSK(GlyGly (K))K_]
collision cross section [12]: 452.76 ± 1.4 Å² | collision cross section [13]: 507.31 ± 14 Å²

GFALVGVGSEASSKK [_GFALVGVGSEASSK(Malonyl)K_]
collision cross section [14]: 414.22 ± 0.58 Å²

GFALVGVGSEASSKK [_GFALVGVGSEASSK(Methyl (K))K_]
collision cross section [15]: 437.53 ± 2.3 Å² | collision cross section [16]: 496.87 ± 4 Å²

GFALVGVGSEASSKK [_GFALVGVGSEASSK(Propionyl)K_]
collision cross section [1]: 411.51 Å²

GFALVGVGSEASSKK [_GFALVGVGSEASSK(Succinyl)K_]
collision cross section [2]: 413.38 ± 0.54 Å² | collision cross section [3]: 497.13 ± 2.5 Å²
